Test results: article PMC8764033, “Single-molecule analysis of specificity and multivalency in binding of short linear substrate motifs to the APC/C” (Nature Communications, 2022)
Several values for one entry are separate records, joined by “and”; a condition that tells them apart may be missing. Equal entries are not always repeated. Entries after “also recorded” stand apart in the source; their conditions may differ.

Tests used:
APC/C^Cdc20 = biological target: T1, APC/C^Cdc20 (Saccharomyces cerevisiae, UniProt P26309+P53068); assay: SMOR assay, yeast APC/C^Cdc20; assay type: binding; conditions: for mean dwell time: representative of two independent experiments, ± SE, ligand ≤1 nM, buffer C + BSA
T1 construct: APC/C was purified from yeast cells; made in house; host or cells: APC/C from S. cerevisiae W303 strain NHY13 (Cdc16-TAP, Apc1-GFP, cdh1 deleted); Cdc20 from Sf9 (baculovirus)
Procedure: (§1) Yeast strains were derivatives of W303 and are listed in Supplementary Table 2. For APC/C purification, we used a strain carrying Cdc16-TAP and lacking Cdh1 (DOM1126); in most experiments, the strain also carried Apc1-GFP (NHY13). Yeast were grown in YPD media to OD600 = 0.8, collected and flash-frozen. Cells were lysed by bead beating in lysis buffer A (50 mM HEPES pH 7.5, 150 mM KCl, 10% glycerol, 0.2% Triton X-100, 63 µM B-glycerophosphate, 48 µM sodium fluoride, 1 µg ml^−1 pepstatin A, 1 µg ml^−1 leupeptin, 1 µg ml^−1 aprotinin, 1 mM PMSF, 1 mM DTT, 0.5 mM EDTA) and APC/C was purified using magnetic IgG beads. The beads were washed using wash buffer A (20 mM HEPES pH 7.5, 150 mM KCl, 10% Glycerol, 0.05% Triton X-100). After incubation with purified Cdh1 or Cdc20, the APC/C was cleaved off the beads with TEV protease in wash buffer A with 0.05% Tween-20 (for single-molecule studies) or 0.05% Triton X-100 (for ensemble assays such as ubiquitylation) and used immediately.
(§2) For all SMOR experiments, 24 × 50 mm high precision glass coverslips (Bioscience Tools) and drilled microscope slides were passivated with a combination of PEG and PEG-biotin (coverslips) or PEG only (slides) following a previously published protocol for SiMPull[31]. Reaction chambers (~20 µl) were created using double-sided tape and epoxy. Protein was immobilized on the surface with 0.2 mg ml^−1 NeutrAvidin in buffer C (20 mM HEPES pH 7.5, 150 mM KCl, 10% glycerol, 0.05% Tween-20, 1 mM DTT). Excess NeutrAvidin was washed away and incubated with either biotin-conjugated mouse monoclonal anti-Strep-Tag II antibody (LSBio, Cat. No. LS-C203632-100) or biotin-conjugated rabbit polyclonal anti-GFP antibody (Rockland, Cat. No. 600-406-215) diluted in buffer C + BSA (0.1 mg ml^−1; Molecular Biology Grade Bovine Serum Albumin). Activator WD40 and activated APC/C (typically 50 µl containing about 65 ng APC/C, of which only a small fraction is immobilized on the glass) were immobilized using anti-Strep-Tag II, while APC/C alone was immobilized with anti-GFP. SMOR results were similar when performed in the buffer (wash buffer B) used in polarization anisotropy.
To capture dynamic protein–protein interactions, dye-labeled substrate diluted in buffer C + BSA was added to the chamber containing immobilized proteins. Interactions were imaged by TIRF microscopy as described below. For optimal signal-to-noise ratio, peptide concentration was no greater than 1 nM. Protein substrates included Hsl1 aa 667–872 and a C-terminal HaloTag followed by a TAP tag, and were produced by translation in rabbit reticulocyte lysates using TnT Quick Coupled Transcription/Translation System (Promega) (see Supplementary Table 5 for plasmids). Protein was purified with magnetic IgG beads and labeled on the bead with JF549 or JF646 dye so that unbound dye could be washed away. Purified dye-labeled protein was then cleaved from the beads using TEV protease. Before adding substrate to the reaction chamber, oxygen scavenging reagents were added (10 nM protocatechuate-3,4-dioxygenase, 2.5 mM protocatechuic acid, and 1 mM Trolox)[41]. A detailed description of the SMOR analysis pipeline is found in Supplementary Note 1.
Microscopy was performed with a Nikon Eclipse TE2000-E with Perfect Focus with a 100 × 1.49na oil, Apo TIRF DIC N2, 0.13-0.2, WD0.12 objective. Movies were recorded using the Andor iXon DU-897E-CSO. For visualizing GFP-tagged protein, a 491 nm laser was used with an ET525/50 (Chroma) filter for emission. […]

APC/C = APC/C ubiquitylation assay; assay type: biochemical, yeast; conditions: listed as Hsl1^Halo
Procedure: APC/C ubiquitylation assays were performed as described previously. In short, APC/C was purified from yeast as described above using magnetic IgG beads and activated with a purified Cdh1 or Cdc20 activator. For all APC/C ubiquitylation assays, substrates were produced by in vitro translation with ^35S-Methionine (see Supplementary Table 5 for plasmids). Substrates were purified using magnetic IgG beads. E1 and E2 (Ubc4) were expressed in E. coli and purified as described previously[25],[42]. E2 was charged at 37 °C for 30 min (reaction contained 0.2 mg ml^−1 Uba1, 2 mg ml^−1 Ubc4, 2 mg ml^−1 methylated ubiquitin from Boston Biochem #Y-501, and 1 mM ATP). Charged E2 was added to a reaction containing activated APC/C and substrate. Reaction products were analyzed by SDS-PAGE and Phosphorimaging on a Typhoon 9400 Imager. […]

APC/C^Apc10-4A, Cdc20 = assay: SMOR assay, yeast APC/C^Apc10-4A, Cdc20; assay type: binding, Saccharomyces cerevisiae
Chain of APC/C^Apc10-4A, Cdc20 (P26309 whole entry): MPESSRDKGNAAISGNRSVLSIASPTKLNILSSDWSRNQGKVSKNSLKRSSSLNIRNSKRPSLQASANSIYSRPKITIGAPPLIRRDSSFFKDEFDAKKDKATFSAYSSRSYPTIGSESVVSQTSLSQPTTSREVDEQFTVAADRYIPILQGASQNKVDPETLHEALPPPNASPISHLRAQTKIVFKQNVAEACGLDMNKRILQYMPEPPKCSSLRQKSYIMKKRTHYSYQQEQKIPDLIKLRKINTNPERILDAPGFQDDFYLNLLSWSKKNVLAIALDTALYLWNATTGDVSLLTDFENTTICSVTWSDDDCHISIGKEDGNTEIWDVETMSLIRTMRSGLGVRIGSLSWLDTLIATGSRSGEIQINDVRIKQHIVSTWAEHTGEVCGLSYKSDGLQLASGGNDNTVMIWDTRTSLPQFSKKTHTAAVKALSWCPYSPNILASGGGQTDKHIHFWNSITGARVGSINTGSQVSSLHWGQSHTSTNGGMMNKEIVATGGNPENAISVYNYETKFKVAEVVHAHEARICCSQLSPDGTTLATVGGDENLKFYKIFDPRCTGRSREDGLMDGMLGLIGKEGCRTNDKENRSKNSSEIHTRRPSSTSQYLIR
Procedure: as §1, §2
To capture dynamic protein–protein interactions, dye-labeled substrate diluted in buffer C + BSA was added to the chamber containing immobilized proteins. Interactions were imaged by TIRF microscopy as described below. For optimal signal-to-noise ratio, peptide concentration was no greater than 1 nM. […]
Microscopy was performed with a Nikon Eclipse TE2000-E with Perfect Focus with a 100 × 1.49na oil, Apo TIRF DIC N2, 0.13-0.2, WD0.12 objective. Movies were recorded using the Andor iXon DU-897E-CSO. […]

[1] = Supplementary Table 1, replicate 1 (movie listed first)
[2] = Supplementary Table 1, replicate 2 (movie listed second)

B1: Hsl1^Halo KEN & D: Hsl1 fragment (amino acids 667–872) with C-terminal HaloTag, JF549-labeled (protein)
chain: QNSASKRSLYSLQSISKRSLNLNDLLVFDDPLPSKKPASENVNKSEPHSLESDSDFEILCDQILFGNALDRILEEEEDNEKERDTQRQRQNDTKSSADTFTISGVSTNKENEGPEYPTKIEKNQFNMSYKPSENMSGLSSFPIFEKENTLSSSYLEEQKPKRAALSDITNSFNKMNKQEGMRIEKKIQREQLQKKNDRPSPLKPIQ
modifications: JF549 or JF646 dye covalently bound to the HaloTag; left off: HaloTag, C-terminal, kept | TAP, C-terminal, cleaved
notes: Hsl1 fragment (amino acids 667–872) with C-terminal HaloTag, JF549-labeled
fold lower affinity/dwell time with APC/C^Cdc20 than with APC/C^Cdh1 (preference for APC/C^Cdh1) (APC/C^Cdc20): 600 fold
Dwell Time (APC/C^Cdc20; [1]): 0.518 ± 0.032 s
Dwell Time (APC/C^Cdc20; [2]): 0.396 ± 0.027 s
mean dwell time (APC/C^Cdc20): 0.518 ± 0.03 s and 0.518 s
mean dwell time (APC/C^Cdc20; listed as Hsl1 fragment): 0.518 ± 0.03 s
ubiquitylation (in words) (APC/C): HaloTag does not affect ubiquitylation or binding
binding (in words) (APC/C^Apc10-4A, Cdc20): the Apc10-4A mutations only slightly reduced Hsl1 dwell time with APC/C^Cdc20; also recorded: only slightly reduced by mutation of Apc10
Dwell Time (APC/C^Apc10-4A, Cdc20; [1]): 0.449 ± 0.014 s
Dwell Time (APC/C^Apc10-4A, Cdc20; [2]): 0.372 ± 0.027 s
mean dwell time (APC/C^Apc10-4A, Cdc20; representative of two independent experiments, ± SE, ligand ≤1 nM, buffer C + BSA): 0.449 s
